The values that follow come from patent publication US12065471B2, “B*44 restricted peptides for use in immunotherapy against cancers and related methods” (Immatics Biotechnologies GmbH, priority 2018, dated 2024).

The target of the test is HLA-B*44:05 (Homo sapiens, UniProt P01889, A223V/A65T/A93T/A95T/D201E/D98Y/E176V/E187L/E204Q/E69K/G107R/H137Y/K202T/L105A/L119I/N104T/N87E/Q56L/Q94N/R106L/R155S/R180D/S101N/S121R/S35A/S48T/T118I/V36M/W191S/Y91S). The test can be described thus: MHC binding assay (UV-ligand exchange, β2m ELISA, peptide exchange yield). The settings on record: binding to HLA-B*44:05. The text has this: Candidate peptides for T cell-based therapies according to the present invention were further tested for their MHC binding capacity (affinity). The individual peptide-MHC complexes were produced by UV-ligand exchange, where a UV-sensitive peptide is cleaved upon UV-irradiation and exchanged with the peptide of interest as analyzed. Only peptide candidates that can effectively bind and stabilize the peptide-receptive MHC molecules prevent dissociation of the MHC complexes. To determine the yield of the exchange reaction, an ELISA was performed based on the detection of the light chain (β2m) of stabilized MHC complexes. The assay was performed as generally described in Rodenko et al. (Rodenko et al., 2006)
96 well MAXISorp plates (NUNC) were coated over night with 2 μg/ml streptavidin in PBS at room temperature, washed 4× and blocked for 1 h at 37° C. in 2% BSA containing blocking buffer. Refolded HLA-A*02:01/MLA-001 monomers served as standards, covering the range of 15-500 ng/ml. Peptide-MHC monomers of the UV-exchange reaction were diluted 100-fold in blocking buffer. Samples were incubated for 1h at 37° C., washed four times, incubated with 2 μg/ml HRP conjugated anti-β2m for 1h at 37° C., washed again and detected with TMB solution that is stopped with […]. Absorption was measured at 450 nm.
(ELISA stands for enzyme-linked immunosorbent assay.)
“220 (EEEVFSGMKL; listed as Homo sapiens) [compound 220]”: the “Peptide exchange (MHC class I binding score, peptide exchange yield)” value (“Peptide exchange” for short) was “++++ (>75% = ++++)”.

On to “198 (REEEANVVL; listed as Homo sapiens) [compound 198]”, for which the “Peptide exchange” value was “+++ (>50 = +++)”.

On to “202 (RELPLVLLA; listed as Homo sapiens) [compound 202]”, for which the “Peptide exchange” value is “++ (>20% = ++)”.

For the substance “338 (AEMKFYVVI; listed as Homo sapiens) [compound 338]”, the “Peptide exchange” value is given as “+++ (>50 = +++)”.

As for “337 (VEVIPEGAML; listed as Homo sapiens) [compound 337]”, the “Peptide exchange” value is “+++ (>50 = +++)”.

With “200 (KELSVFKKF; listed as Homo sapiens) [compound 200]”, the “Peptide exchange” value is reported as “+++ (>50 = +++)”.

As to “214 (SVNPIIYGF; listed as Homo sapiens) [compound 214]”, the “Peptide exchange” value is listed as “++ (>20% = ++)”.

On to “217 (EVEVGDRTDW; listed as Homo sapiens) [compound 217]”, for which the “Peptide exchange” value is “++ (>20% = ++)”.

As to “189 (ALNGDIYVW; listed as Homo sapiens) [compound 189]”, the “Peptide exchange” value is “++++ (>75% = ++++)”.

For the substance “133 (IEAPKLMVV; listed as Homo sapiens) [compound 133]”, the “Peptide exchange” value is given as “+ (>10% = +)”.

With “297 (DEYLIPQQGFF; listed as Homo sapiens) [compound 297]”, the “Peptide exchange” value is “++ (>20% = ++)”.

For the substance “361 (EDASLMGLY; listed as Homo sapiens) [compound 361]”, the “Peptide exchange” value is on record as “++ (>20% = ++)”.

Regarding “229 (AEDLEKKYA; listed as Homo sapiens) [compound 229]”, the “Peptide exchange” value is reported as “++ (>20% = ++)”.

In the case of “77 (QETLAESTW; listed as Homo sapiens) [compound 77]”, the “Peptide exchange” value was “+++ (>50 = +++)”.

As to “445 (QEVGEITNL; listed as Homo sapiens) [compound 445]”, the “Peptide exchange” value is recorded as “+++ (>50 = +++)”.

On to “251 (DESADSEPHKY; listed as Homo sapiens) [compound 251]”, for which the “Peptide exchange” value is on record as “+ (>10% = +)”.

Turning to “377 (AEDARGWTA; listed as Homo sapiens) [compound 377]”, the “Peptide exchange” value is reported as “++ (>20% = ++)”.

For “182 (EELHAALSEW; listed as Homo sapiens) [compound 182]”, the “Peptide exchange” value is “++++ (>75% = ++++)”.

For the substance “135 (QEIDRGQYI; listed as Homo sapiens) [compound 135]”, the “Peptide exchange” value was “++++ (>75% = ++++)”.

“456 (SESPIRISV; listed as Homo sapiens) [compound 456]”: the “Peptide exchange” value is recorded as “+++ (>50 = +++)”.

For the substance “236 (LEDQLKPMLEW; listed as Homo sapiens) [compound 236]”, the “Peptide exchange” value is listed as “+++ (>50 = +++)”.

Consider “357 (AELMDKPLTF; listed as Homo sapiens) [compound 357]”, for which the “Peptide exchange” value is on record as “+++ (>50 = +++)”.

As to “414 (AEGYLDLDGI; listed as Homo sapiens) [compound 414]”, the “Peptide exchange” value is recorded as “++ (>20% = ++)”.

For “65 (SESMVESKF; listed as Homo sapiens) [compound 65]”, the “Peptide exchange” value was “++ (>20% = ++)”.

On to “327 (SEQHSLPVF; listed as Homo sapiens) [compound 327]”, for which the “Peptide exchange” value is listed as “+++ (>50 = +++)”.

“239 (DEDYTYLIL; listed as Homo sapiens) [compound 239]”: the “Peptide exchange” value is given as “++ (>20% = ++)”.

As to “397 (EECGKAFSVF; listed as Homo sapiens) [compound 397]”, the “Peptide exchange” value is “+++ (>50 = +++)”.

As to “424 (EEHVYESIIRW; listed as Homo sapiens) [compound 424]”, the “Peptide exchange” value is given as “+++ (>50 = +++)”.

On to “187 (TEQALRLSV; listed as Homo sapiens) [compound 187]”, for which the “Peptide exchange” value was “++++ (>75% = ++++)”.

Turning to “303 (GEDAHLTQY; listed as Homo sapiens) [compound 303]”, the “Peptide exchange” value is on record as “++ (>20% = ++)”.

As for “134 (IEIKDRLQL; listed as Homo sapiens) [compound 134]”, the “Peptide exchange” value was “+++ (>50 = +++)”.

As for “168 (EEGPSVPKIY; listed as Homo sapiens) [compound 168]”, the “Peptide exchange” value is given as “++ (>20% = ++)”.

Take “166 (EEQDFINNRY; listed as Homo sapiens) [compound 166]”: the “Peptide exchange” value is recorded as “++++ (>75% = ++++)”.

For “115 (QEPFTRPVL; listed as Homo sapiens) [compound 115]”, the “Peptide exchange” value is “+++ (>50 = +++)”.

As to “416 (DELMRKESQW; listed as Homo sapiens) [compound 416]”, the “Peptide exchange” value is listed as “+++ (>50 = +++)”.

In the case of “237 (QEIGQKTSV; listed as Homo sapiens) [compound 237]”, the “Peptide exchange” value is given as “+++ (>50 = +++)”.

Regarding “261 (QEWDPQKTEKY; listed as Homo sapiens) [compound 261]”, the “Peptide exchange” value was “+++ (>50 = +++)”.

As for “306 (RRHPSFKRF; listed as Homo sapiens) [compound 306]”, the “Peptide exchange” value is “+ (>10% = +)”.

For the substance “211 (LEMLDAHRL; listed as Homo sapiens) [compound 211]”, the “Peptide exchange” value was “+++ (>50 = +++)”.

On to “302 (EGEDAHLTQY; listed as Homo sapiens) [compound 302]”, for which the “Peptide exchange” value is listed as “++ (>20% = ++)”.

With “415 (EEAGFPLAY; listed as Homo sapiens) [compound 415]”, the “Peptide exchange” value is recorded as “+++ (>50 = +++)”.

On to “384 (LDGIPTAGW; listed as Homo sapiens) [compound 384]”, for which the “Peptide exchange” value is listed as “+++ (>50 = +++)”.

As to “273 (TEFELLHQV; listed as Homo sapiens) [compound 273]”, the “Peptide exchange” value was “+++ (>50 = +++)”.

As to “140 (TEHSGIYSC; listed as Homo sapiens) [compound 140]”, the “Peptide exchange” value is “++ (>20% = ++)”.

Consider “417 (EESFRCLPEW; listed as Homo sapiens) [compound 417]”, for which the “Peptide exchange” value is given as “++++ (>75% = ++++)”.

With “238 (VEDDNYKLSL; listed as Homo sapiens) [compound 238]”, the “Peptide exchange” value was “+++ (>50 = +++)”.

For “98 (SEESAGPLL; listed as Homo sapiens) [compound 98]”, the “Peptide exchange” value is reported as “+++ (>50 = +++)”.

As for “246 (HEHGLFNLY; listed as Homo sapiens) [compound 246]”, the “Peptide exchange” value was “+++ (>50 = +++)”.

For “146 (MEELRMLSF; listed as Homo sapiens) [compound 146]”, the “Peptide exchange” value is “+++ (>50 = +++)”.

For the substance “276 (SEYQDGKEF; listed as Homo sapiens) [compound 276]”, the “Peptide exchange” value was “++ (>20% = ++)”.

For the substance “191 (AEHDMKSVL; listed as Homo sapiens) [compound 191]”, the “Peptide exchange” value was “+++ (>50 = +++)”.

Regarding “230 (AEALVDGKW; listed as Homo sapiens) [compound 230]”, the “Peptide exchange” value is on record as “+++ (>50 = +++)”.

With “411 (AERDLNVTI; listed as Homo sapiens) [compound 411]”, the “Peptide exchange” value is “+++ (>50 = +++)”.

As to “343 (SEFDLEQVW; listed as Homo sapiens) [compound 343]”, the “Peptide exchange” value was “++++ (>75% = ++++)”.

For “440 (QEVAQVASA; listed as Homo sapiens) [compound 440]”, the “Peptide exchange” value is given as “++ (>20% = ++)”.

For “190 (NEAGEVSKHF; listed as Homo sapiens) [compound 190]”, the “Peptide exchange” value is on record as “+++ (>50 = +++)”.

“256 (RLLPGKVVW; listed as Homo sapiens) [compound 256]”: the “Peptide exchange” value is “++ (>20% = ++)”.
